# Data reported in US20230090114A1, “METHODS FOR PROMOTING WEIGHT LOSS” (89BIO LTD., priority 2020, published 2023).
# B1: Mutant FGF21-GalNAc-SA-PEG-20 kDa (conjugate)
# chain: MHPIPDSSPLLQFGGQVRQRYLYTDDAQQTEAHLEIREDGTVGGAADQSPESLLQLKALKPGVIQILGVKTSRFLCQRPDGALYGSLHFDPEACSFRELLLEDGYNVYQSEAHGLPLHLPGNKSPHRDPAPRGPARFLPLPGLPPALPEPPGILAPQPPDVGSSDPLSMVGPTQGASPSYAS
# Key:
# [1] = Food intake and meal pattern (daily and METABOpack sessions); type: in vivo, CD-1 mice
# Description: During the METABOpack™ sessions, animals were housed singly in the Physiocage System (Panlab/Harvard apparatus), which was composed of: • 8 physiocages (LE1301) • 8 Air tight lids for mouse (LE1303) • 8 grid floors for mouse (LE1317) • 8 Feeding bottles for mouse (LE1306) • 2 Air supply and switching units for up to 4 home cages each (LE4004FL) • 1 O2/CO2 analyzer (LE405) • 1 acquisition software suite, METABOLISM (V3.0).
# From T1 to T28, vehicle and 89BIO100 (at the 3 different doses) were administrated by subcutaneous (SC) injection three times a week, while the treatment with liraglutide was administrated by subcutaneous route, twice a day, every day. It was important to notice that the first dosing was done just before the […] (at 9:00 AM) and the second dosing was done 8 hours after the first one (at 5:00 PM). Throughout the treatment period, FI and BW were daily measured.
# In the present project, a METABOpack™ session was consisted of a 12-hour period of acclimation followed by a 48-hour period of recording of the respiratory exchanges, FI, water intake (WI) and locomotor activity of each animal.
# Following this acclimation period, the parameters cited above were automatically and simultaneously recorded for 48 hours, except for body weight that was measured manually every day.
# The METABOpack™ sessions were conducted at the start (T1-2), the middle (T14-15) and the end (T26-27) of the treatment period.
# Meal pattern analysis was performed on high-resolution recordings of food intake obtained during the METABOpack™ sessions. The Physiocage system allowed recording food intake with an accuracy of 1 measure per second and a precision of 0.02 g. The physiocages were equipped with a system allowing to precisely collect the spillage of the animals, by the mean of a platform located under the food dispenser. This platform and the spillages it contains, were permanently weighted by the system and the values added to the total weight of the food dispenser. With this system, the progressive decrease in the food dispenser net weight only reflected the food consumption of the animals. The analysis was performed by plotting data every minute. Each weight variation of the feeding container (transition from one stable value to another) was considered as a “bout”, with each bout separated from each other bout by an “inter-bout interval”. A meal consisted of at least one bout, with each meal separated from each other meal by a “post-meal interval”. For the purpose of this study, a meal was defined as any feeding episode causing a change in food weight of 0.02 g and separated by at least 5 min from any subsequent episode. Based on this criterion, the following parameters were calculated for each experimental group: […]
# [2] = Body composition (minispec Analyzer, TD-NMR); type: in vivo, CD-1 mice
# Experimental: For body composition analyses, a minispec Analyzer (LF90II, Bruker, Germany) was used. The LF90II provides an accurate measure of the whole-body lean mass, fat mass and free fluid mass in living and vigil animals.
# Body composition was measured using a minispec Analyzer (LF90II, Bruker, Germany) one (1) day before treatment start on habituation day 7 (H7) and on treatment day 13 (T13) and treatment day 25 (T25) of Treatment days. Briefly, each mouse was placed in a red clear plastic tube sealed by a plunger. Then, the tube was inserted into the minispec Analyzer for measurement of body composition (˜ 2 min/measurement). Once the measurement completed, the mouse was removed from the plastic tube and immediately replaced into its cage. The tube and the plunger were washed and dried between each mouse. As a reminder, the Minispec analyser allows fast and precise measurements of fat tissue (g) (adipose tissue), lean tissue (g) (mainly muscles) and free fluid content (g). It should be noted that each measurement was performed just prior to a METABOpack™ session in order to normalize the respiratory exchanges-related parameters of each mouse by its lean mass (see METABOpack™ session section).
# General Methods: Naive CD-1 mice were treated subcutaneously (SC) for 4 weeks at ambient temperature with BIO89-100 at doses of 0, 0.3, 1.0 and 3.0 mg/kg (3qW×4 weeks) or with liraglutide at 0.2 mg/kg (BID×4 W; SC). BW and FC were measured daily throughout the treatment period. To investigate the impact of BIO89-100 on energy expenditure, the respiratory exchanges (VO2 and VCO2) were recorded during 3 distinct sessions of METABOpack™, a multiparametric approach allowing an automated and simultaneous recording of FC, water intake, respiratory exchanges and spontaneous activity. Meal pattern analysis was conducted on the high-resolution recordings of FC. The body composition (fat, lean and fluid masses) was analyzed 3 times during the study by the mean of Time-Domain Nuclear Magnetic Resonance (TD-NMR).
# [3] = T1, WD and NP, three doses, vs Liraglutide
# [4] = T2, WD, three doses, vs Liraglutide
# [5] = T2, WD, three doses, vs vehicle
# [6] = first meal on T14, 3 mg/kg, vs 1 mg/kg
# [7] = first meal on T14, 3 mg/kg, vs vehicle
# [8] = BIO89-100-treated CD-1 mice, overall
# [9] = T13, three doses, vs Liraglutide
molecule,measurement,setting,value
B1,mean meal size,[1]; BIO89-100-treated mice,no change
same,mean meal number,"[1]; BIO89-100-treated mice, related to increased FC",increase in mean meal number
same,cumulative food intake,"[1]; T1, 0.3 mg/kg, vs vehicle, at 5 h, 6 h, 15-24 h",increased
same,cumulative food intake,"[1]; T1, 1 mg/kg, vs vehicle, at 1 h, 3 h, 18-24 h",increased
same,cumulative food intake,"[1]; T1, 3 mg/kg, vs vehicle, 10-12 h and 14-17 h",increased
same,mean meal size,"[1]; T1, DP, 0.3 mg/kg, vs Liraglutide",increased
same,mean meal size,"[1]; T1, DP, 3 mg/kg, vs 0.3 and 1 mg/kg",decreased
same,mean meal size,"[1]; T1, DP, 3 mg/kg, vs vehicle",reduced
same,mean food intake,"[1]; T1, DP, between groups",no significant difference
same,mean food intake,"[1]; T1, NP and WD, between the three 89BIO-100 groups",No significant difference
same,mean food intake,"[1]; T1, NP and WD, whatever the dose, vs Liraglutide",increase in mean food intake
same,mean food intake,"[1]; T1, NP, 3 mg/kg, vs vehicle",higher
same,mean meal number,[1]; [3],increased
same,mean satiety ratio,[1]; [3],decreased
same,mean food intake,"[1]; T1, WD, 0.3 and 1 mg/kg, vs vehicle",increased
same,cumulative food intake,"[1]; T1, between the three 89BIO-100 groups",no significant difference
same,cumulative food intake,"[1]; T1, three doses, vs Liraglutide, 5-24 h",increase in cumulative food intake
same,cumulative food intake,"[1]; T2, 0.3 mg/kg, vs Liraglutide, at 5 h, 6 h, 10-24 h",increased
same,cumulative food intake,"[1]; T2, 1 mg/kg, vs Liraglutide, 4-24 h",increased
same,cumulative food intake,"[1]; T2, 3 mg/kg, vs 0.3 mg/kg, at 1 h and 2 h only",slightly increased
same,cumulative food intake,"[1]; T2, 3 mg/kg, vs Liraglutide, over 24 h except at 4 h",increased
same,cumulative food intake,"[1]; T2, 3 mg/kg, vs vehicle, over 24 h except at 4 h",increased
same,cumulative food intake,"[1]; T2, 0.3 and 1 mg/kg, vs vehicle, 13-24 h",increase in cumulative food intake
same,cumulative food intake,"[1]; T2, 1 vs 3 mg/kg and 0.3 vs 1 mg/kg",no significant difference
same,mean food intake,"[1]; T2, DP, between groups",no significant difference
same,mean food intake,"[1]; T2, NP and WD, between the three 89BIO-100 groups",No significant difference
same,mean food intake,"[1]; T2, NP and WD, whatever the dose, vs Liraglutide",increase in mean food intake
same,mean food intake,"[1]; T2, NP, 3 mg/kg, vs vehicle",higher
same,mean meal number,"[1]; T2, WD, 0.3 and 3 mg/kg, vs vehicle",increased
same,mean meal number,[1]; [4],increased
same,mean post-meal interval,[1]; [4],decreased
same,satiety ratio,[1]; [4],decreased
same,mean food intake,[1]; [5],increased
same,mean post-meal interval,[1]; [5],shorter
same,mean food intake,"[1]; T15, WD only, whatever the dose, vs Liraglutide",increased
same,mean food intake,"[1]; T15, WD only, whatever the dose, vs vehicle",increased
same,mean meal duration,"[1]; T27, 3 mg/kg, vs vehicle, 0.3 and 1 mg/kg groups",significant increase in mean meal duration
same,mean post-meal interval,"[1]; first meal on T14, 0.3 mg/kg, vs vehicle",reduction in mean post-meal interval
same,mean satiety ratio,"[1]; first meal on T14, 1 mg/kg, vs 0.3 mg/kg",higher
same,mean post-meal interval,"[1]; first meal on T14, 1 mg/kg, vs Liraglutide",increase in mean post-meal interval
same,mean post-meal interval,[1]; [6],reduction
same,mean satiety ratio,[1]; [6],reduction
same,mean post-meal interval,[1]; [7],decrease
same,mean satiety ratio,[1]; [7],decrease
same,mean post-meal interval,"[1]; first meal on T15, 1 mg/kg, vs Liraglutide",increase in mean post-meal interval
same,mean post-meal interval,"[1]; first meal on T15, 3 mg/kg, vs 1 mg/kg",lower
same,mean post-meal interval,"[1]; first meal on T15, 3 mg/kg, vs vehicle",decrease in mean post-meal interval
same,mean first meal latency,"[1]; first meal on T15, three doses, vs vehicle",reduced
same,mean first meal latency,"[1]; first meal on T26, 3 mg/kg, vs Liraglutide",increase in mean first meal latency
same,mean first meal latency,"[1]; first meal on T26, 0.3 and 1 mg/kg, vs vehicle",increase in mean first meal latency
same,increase in FC,"[1]; naive CD-1 mice, 0.3-3.0 mg/kg SC 3qW x 4 weeks, up to",up to +94%
same,food intake,"[1]; summary, significantly increased on T1, T2 and T15",increased
same,fat mass,[2]; [8],marked decrease in fat mass
same,lean masses and body fluid,[2]; [8],without affecting
same,fat mass (g),"[2]; T13, 3 mg/kg, vs 0.3 mg/kg",significantly decreased
same,fluid mass (g),"[2]; T13, 3 mg/kg, vs 0.3 mg/kg",significantly decreased
same,lean mass (g),"[2]; T13, 3 mg/kg, vs 0.3 and 1 mg/kg",reduction in lean mass
same,fluid mass (g),"[2]; T13, 3 mg/kg, vs vehicle",significantly decreased
same,lean mass (g),"[2]; T13, 3 mg/kg, vs vehicle",significantly decreased
same,fat mass (g),"[2]; T13, 1 and 3 mg/kg, vs vehicle",reduction in fat mass
same,fat mass (g),[2]; [9],No significant difference
same,fluid mass (g),[2]; [9],No significant difference
same,lean mass (g),[2]; [9],No significant difference
same,fat mass (g),"[2]; T25, 1 and 3 mg/kg, vs vehicle",reduction in fat mass
same,fat mass (g),"[2]; T25, three doses, vs Liraglutide",No significant difference
same,delta fat mass (g),"[2]; T25 minus H7, 1 and 3 mg/kg, vs vehicle and Liraglutide",lower
